Test results as given in PMC3338420.

Legend:
SNX18 (Homo sapiens) = SNX18 (Homo sapiens) (UniProt Q96RF0); settings: cited from earlier work
[1] = biological target: Rab6a/RPRdel complex (Rab6a with RUN1-PLAT-RUN2 of DENND5A, loop 813–835 deleted) (human | mouse) (UniProt P20340); assay: SPR; Biacore X-100, 293 K; Rab6/RPRdel or Rab6/RPdel amine-coupled to a CM5 chip (about 2,500 RU); SNX1 fragments as analytes, 0.2 to 40 µM; 100 mM NaCl, 1 mM DTT, 0.005% P20, 10 mM HEPES pH 8.0; multi-cycle; equilibrium KD from a 1:1 model
Sequence of UniProt P20340 (P20340 8-195 Q72L, chain 1 of 2): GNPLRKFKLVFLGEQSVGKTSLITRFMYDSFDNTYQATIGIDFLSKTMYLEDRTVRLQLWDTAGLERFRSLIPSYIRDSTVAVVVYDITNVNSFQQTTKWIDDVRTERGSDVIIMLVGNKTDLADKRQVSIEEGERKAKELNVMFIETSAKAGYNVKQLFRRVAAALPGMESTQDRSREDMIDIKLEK
Sequence of UniProt P20340 (Q6PAL8 other isoform, or with tags, fused parts or gaps, chain 2 of 2, further chain): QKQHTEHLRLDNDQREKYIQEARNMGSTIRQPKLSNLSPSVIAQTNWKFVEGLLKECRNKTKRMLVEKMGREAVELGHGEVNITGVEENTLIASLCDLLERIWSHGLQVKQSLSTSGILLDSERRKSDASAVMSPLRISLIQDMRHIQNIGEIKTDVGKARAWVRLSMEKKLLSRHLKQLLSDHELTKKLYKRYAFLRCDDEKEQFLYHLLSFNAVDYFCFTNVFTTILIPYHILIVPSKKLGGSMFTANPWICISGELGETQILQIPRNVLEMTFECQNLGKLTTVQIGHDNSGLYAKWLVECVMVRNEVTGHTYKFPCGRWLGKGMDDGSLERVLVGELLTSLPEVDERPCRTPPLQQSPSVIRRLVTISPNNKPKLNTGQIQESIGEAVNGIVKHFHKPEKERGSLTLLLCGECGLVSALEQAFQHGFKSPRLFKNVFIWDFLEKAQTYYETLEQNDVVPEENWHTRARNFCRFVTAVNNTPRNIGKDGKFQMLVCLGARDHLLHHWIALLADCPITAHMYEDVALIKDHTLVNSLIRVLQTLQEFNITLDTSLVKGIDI

Sequence of UniProt Q96RF0 (Q96RF0 whole entry, the tested form may be a part): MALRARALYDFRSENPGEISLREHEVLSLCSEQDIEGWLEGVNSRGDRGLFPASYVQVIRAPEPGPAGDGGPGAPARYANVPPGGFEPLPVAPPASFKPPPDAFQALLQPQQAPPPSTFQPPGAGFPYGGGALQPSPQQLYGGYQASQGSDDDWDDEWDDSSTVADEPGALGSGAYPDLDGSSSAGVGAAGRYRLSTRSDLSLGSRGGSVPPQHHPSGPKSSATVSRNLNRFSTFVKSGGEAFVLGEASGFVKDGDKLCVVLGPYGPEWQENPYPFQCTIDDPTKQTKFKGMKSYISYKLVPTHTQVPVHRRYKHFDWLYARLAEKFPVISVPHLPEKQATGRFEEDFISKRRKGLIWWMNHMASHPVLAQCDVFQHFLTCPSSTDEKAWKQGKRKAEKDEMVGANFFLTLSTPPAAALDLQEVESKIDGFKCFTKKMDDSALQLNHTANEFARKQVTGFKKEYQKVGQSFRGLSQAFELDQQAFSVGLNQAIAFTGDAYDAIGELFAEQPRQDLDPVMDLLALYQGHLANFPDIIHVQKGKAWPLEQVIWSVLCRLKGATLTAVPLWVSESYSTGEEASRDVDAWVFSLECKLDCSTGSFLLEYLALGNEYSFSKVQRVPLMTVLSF

Kd [1] [µM] | Substance | Kd (SNX18 (Homo sapiens)) [µM]
 | FIP5 (from UniProt Q9BXF6) | 1.6
1.7 | SNX1 SNX-PX (9–303) (from UniProt Q9WV80 9-303) (domain or fragment) | 
